Reference: PMC7762955, “Antibiotic binding releases autoinhibition of the TipA multidrug-resistance transcriptional regulator” (The Journal of Biological Chemistry, 2020)

Legend:
[1] = molecular target: SkgA (stationary-phase regulation of KatG protein), Caulobacter crescentus TipA-class transcriptional regulator, full length (Caulobacter crescentus); assay: not stated; SkgA in solution (Fig. S2A); method not given
[2] = molecular target: SkgACC (S16C/E133C), double-cysteine mutant of SkgA (Caulobacter crescentus); assay: cross-linking; disulfide bonds between introduced cysteines; reduced and nonreduced 15% SDS-PAGE, Coomassie Brilliant Blue staining
[3] = molecular target: the molecule itself; assay: SEC; analytical SEC, Superdex 200 10/300, 40 μM protein, 20 mM Tris-HCl pH 7.5, 150 mM NaCl, 1 mM DTT
mta promoter DNA = assay: Fluorescence polarization assay, mta promoter DNA binding; set-up: species or system Bacillus subtilis; details: apo, FPA; for Kd: read-out: Kd, affinity with mta promoter DNA
Method: (§1) Fluorescence polarization assays (FPAs) were performed to test the structure-based hypothesis that α6–α7 plays a key role in communication between the ligand-binding and DNA-binding regions. […] Parallel experiments were also performed for Mta and SkgA proteins, and consistent results were obtained.
(§2) FPAs were performed in buffer consisting of 20 mM Tris-HCl, pH 7.5, 200 mM NaCl and 5% (v/v) glycerol at 298 K using a SpectraMax M5 microplate reader system (Molecular Devices, San Jose, CA, USA). The wavelengths of fluorescence excitation and emission were 486 and 525 nm, respectively. 26-bp dsDNA from the −10 and −35 regions of the tipA, mta, and skgA promoters with the sequences […], […], and […] were synthesized with a 5′-carboxyfluorescein label for the respective assays with TipAL, Mta, and SkgA proteins. For assays with thiostrepton supplementation, proteins were incubated with thiostrepton (Sigma) at a 1:1 ratio for 15 min prior to mixing with DNA in wells. Each well of a 384-well plate contained 10 nM of a fluorescently labeled DNA probe and different amounts of proteins with a final volume of 80 μl. DNA-free controls were included, and three replicates were performed for each reaction for each assay. The fluorescence polarization ΔP (in mP units) was calculated and fitted according to a one-site specific binding model using GraphPad Prism7 (GraphPad Software) with the function ΔP = ΔPmax[protein]/(Kd + [protein]).

[4] = molecular target: the molecule itself; assay: cross-linking; disulfide bonds between introduced cysteines; reduced and nonreduced 15% SDS-PAGE, Coomassie Brilliant Blue staining
[5] = molecular target: tipA promoter DNA (ptipA); assay: Fluorescence polarization assay, tipA promoter DNA binding; set-up: species or system Streptomyces lividans; details: apo, FPA; for Kd: read-out: Kd, affinity with the tipA promoter DNA (ptipA)
Method: as §1, §2

[6] = 10 nM 5'-carboxyfluorescein-labeled 26-bp dsDNA, 20 mM Tris-HCl pH 7.5, 200 mM NaCl, 5% glycerol, 298 K, ex 486/em 525 nm, one-site binding fit, three replicates, n.b. = printed in picture, not defined
[7] = no antibiotic, 10 nM 5'-carboxyfluorescein-labeled 26-bp dsDNA, 20 mM Tris-HCl pH 7.5, 200 mM NaCl, 5% glycerol, 298 K, ex 486/em 525 nm, one-site binding fit, three replicates, n.b. = printed in picture, not defined

“SkgA (stationary-phase regulation of KatG protein), Caulobacter crescentus TipA-class transcriptional regulator, full length (natural protein)” was tested. Which stoichiometry N [1] did it give?
Its stoichiometry N is 2.

Which stoichiometry N [2] does the source give for “SkgACC (S16C/E133C), double-cysteine mutant of SkgA (natural protein)” here?
The stoichiometry N was 2.

B1: TipAN (TipAL residues 1-109), N terminus of TipAL (domain or fragment, Streptomyces lividans, UniProt P0A4T9-1 1-109, looked up)
chain: MSYSVGQVAGFAGVTVRTLHHYDDIGLLVPSERSHAGHRRYSDADLDRLQQILFYRELGFPLDEVAALLDDPAADPRAHLRRQHELLSARIGKLQKMAAAVEQAMEARS
notes: its limits may differ from this construct; source: E. coli BL21 (DE3), purified (nickel-nitrilotriacetic acid, Superdex 200 SEC)
How did the “stoichiometry N” value [3] turn out when B1 was run?
Its value is 2.

B2: MtaH7: truncated protein containing the α6–α7 region, Mta residues 1–144 (protein, UniProt P71039 1-144, looked up, fragment)
chain: MKYQVKQVAEISGVSIRTLHHYDNIELLNPSALTDAGYRLYSDADLERLQQILFFKEIGFRLDEIKEMLDHPNFDRKAALQSQKEILMKKKQRMDEMIQTIDRTLLSVDGGETMNKRDLFAGLSMKDIEEHQQTYADEVRKLYG
With B2 as the molecule, how does the “lower DNA-binding affinity than N-terminal truncation” value (mta promoter DNA; MtaH7 vs MtaN, range printed jointly for the three H7 truncations) read?
The value was 4–7 fold.

And the Kd (mta promoter DNA; [6])?
The Kd was 467 ± 67.4 nM.

B3: MtaCC (S15C/E138C), double-cysteine mutant of Mta (natural protein, Bacillus subtilis, UniProt P71039 1-257, looked up)
chain: MKYQVKQVAEISGVCIRTLHHYDNIELLNPSALTDAGYRLYSDADLERLQQILFFKEIGFRLDEIKEMLDHPNFDRKAALQSQKEILMKKKQRMDEMIQTIDRTLLSVDGGETMNKRDLFAGLSMKDIEEHQQTYADCVRKLYGKEIAEETEKRTSAYSADDWRTIMAEFDSIYRRIAARMKHGPDDAEIQAAVGAFRDHICQYHYDCTLDIFRGLGEVYITDERFTDSINQYGEGLAAFLREAIIIYCDHQENPRP
modifications: disulfide bonds between the introduced cysteines of two protomers (nonreduced sample)
notes: source: E. coli BL21 (DE3), purified (nickel-nitrilotriacetic acid, Superdex 200 SEC)
Which “stoichiometry N” value [4] does the source give for B3 here?
Its value is 2.

B4: Mta: B. subtilis multidrug transporter activation protein, TipA-class (protein)
chain: MKYQVKQVAEISGVSIRTLHHYDNIELLNPSALTDAGYRLYSDADLERLQQILFFKEIGFRLDEIKEMLDHPNFDRKAALQSQKEILMKKKQRMDEMIQTIDRTLLSVDGGETMNKRDLFAGLSMKDIEEHQQTYADEVRKLYGKEIAEETEKRTSAYSADDWRTIMAEFDSIYRRIAARMKHGPDDAEIQAAVGAFRDHICQYHYDCTLDIFRGLGEVYITDERFTDSINQYGEGLAAFLREAIIIYCDHQENPRP
modifications: left off: His6, end not stated, state not stated
How did the Kd (mta promoter DNA; [6]) turn out when B4 was run?
Its Kd is 496 ± 70.3 nM.

B5: MtaCC (protein)
chain: MKYQVKQVAEISGVCIRTLHHYDNIELLNPSALTDAGYRLYSDADLERLQQILFFKEIGFRLDEIKEMLDHPNFDRKAALQSQKEILMKKKQRMDEMIQTIDRTLLSVDGGETMNKRDLFAGLSMKDIEEHQQTYADCVRKLYGKEIAEETEKRTSAYSADDWRTIMAEFDSIYRRIAARMKHGPDDAEIQAAVGAFRDHICQYHYDCTLDIFRGLGEVYITDERFTDSINQYGEGLAAFLREAIIIYCDHQENPRP
modifications: disulfide bonds between the introduced cysteines of two protomers (nonreduced sample); left off: His6, end not stated, state not stated
Which “specific binding with mta promoter DNA” value (mta promoter DNA; double-cysteine mutant) does the source give for B5 here?
The value was “did not show any specific binding”.

What about the “Kd, affinity with mta promoter DNA” value (mta promoter DNA; [6]) of the same molecule?
Its value is “n.b”.

B6: TipAL, full-length thiostrepton-induced protein A of Streptomyces lividans (natural protein, UniProt P0A4T9-1 1-253, looked up)
chain: MSYSVGQVAGFAGVTVRTLHHYDDIGLLVPSERSHAGHRRYSDADLDRLQQILFYRELGFPLDEVAALLDDPAADPRAHLRRQHELLSARIGKLQKMAAAVEQAMEARSMGINLTPEEKFEVFGDFDPDQYEEEVRERWGNTDAYRQSKEKTASYTKEDWQRIQDEADELTRRFVALMDAGEPADSEGAMDAAEDHRQGIARNHYDCGYEMHTCLGEMYVSDERFTRNIDAAKPGLAAYMRDAILANAVRHTP
notes: also called WT TipAL; full-length TipAL; source: E. coli BL21 (DE3), purified (nickel-nitrilotriacetic acid, Superdex 200 SEC)
For B6, which “stoichiometry N” value [3] is on record?
The value was 2.

B7: TipALCC (T15C/E134C), double-cysteine mutant of TipAL (natural protein, Streptomyces lividans, UniProt P0A4T9-1 1-253, looked up)
chain: MSYSVGQVAGFAGVCVRTLHHYDDIGLLVPSERSHAGHRRYSDADLDRLQQILFYRELGFPLDEVAALLDDPAADPRAHLRRQHELLSARIGKLQKMAAAVEQAMEARSMGINLTPEEKFEVFGDFDPDQYEECVRERWGNTDAYRQSKEKTASYTKEDWQRIQDEADELTRRFVALMDAGEPADSEGAMDAAEDHRQGIARNHYDCGYEMHTCLGEMYVSDERFTRNIDAAKPGLAAYMRDAILANAVRHTP
modifications: disulfide bonds between the introduced cysteines of two protomers (nonreduced sample)
notes: as for B3
How did the “stoichiometry N” value [4] turn out when B7 was run?
The value was 2.

B8: TipAL: full-length S. lividans TipA transcriptional regulatory protein (protein)
chain: MSYSVGQVAGFAGVTVRTLHHYDDIGLLVPSERSHAGHRRYSDADLDRLQQILFYRELGFPLDEVAALLDDPAADPRAHLRRQHELLSARIGKLQKMAAAVEQAMEARSMGINLTPEEKFEVFGDFDPDQYEEEVRERWGNTDAYRQSKEKTASYTKEDWQRIQDEADELTRRFVALMDAGEPADSEGAMDAAEDHRQGIARNHYDCGYEMHTCLGEMYVSDERFTRNIDAAKPGLAAYMRDAILANAVRHTP
modifications: left off: His6, end not stated, state not stated
notes: full-length S. lividans TipA transcriptional regulatory protein
Which Kd [5, 7] does the source give for B8 here?
Its Kd is 380 ± 56 nM.

B9: TipALCC (protein)
chain: MSYSVGQVAGFAGVCVRTLHHYDDIGLLVPSERSHAGHRRYSDADLDRLQQILFYRELGFPLDEVAALLDDPAADPRAHLRRQHELLSARIGKLQKMAAAVEQAMEARSMGINLTPEEKFEVFGDFDPDQYEECVRERWGNTDAYRQSKEKTASYTKEDWQRIQDEADELTRRFVALMDAGEPADSEGAMDAAEDHRQGIARNHYDCGYEMHTCLGEMYVSDERFTRNIDAAKPGLAAYMRDAILANAVRHTP
modifications: disulfide bonds between the introduced cysteines of two protomers (nonreduced sample); left off: His6, end not stated, state not stated
Which “ptipA DNA-binding ability” value ([5]; double-cysteine mutant) does the source give for B9 here?
The value was “complete loss of DNA-binding ability”.

What about the “Kd, affinity with the tipA promoter DNA (ptipA)” value [5, 7] of the same molecule?
Its value is “n.b”.

B10: TipAH7 (TipAL residues 1-140), TipAN plus the α6-α7 region (domain or fragment, Streptomyces lividans, UniProt P0A4T9-1 1-140, looked up)
chain: MSYSVGQVAGFAGVTVRTLHHYDDIGLLVPSERSHAGHRRYSDADLDRLQQILFYRELGFPLDEVAALLDDPAADPRAHLRRQHELLSARIGKLQKMAAAVEQAMEARSMGINLTPEEKFEVFGDFDPDQYEEEVRERWG
notes: as for B3
For B10, which “stoichiometry N” value [3] is on record?
Its value is 2.

B11: TipAH7: truncated protein consisting of TipAN and the α6–α7 region, TipAL residues 1–140 (protein)
chain: MSYSVGQVAGFAGVTVRTLHHYDDIGLLVPSERSHAGHRRYSDADLDRLQQILFYRELGFPLDEVAALLDDPAADPRAHLRRQHELLSARIGKLQKMAAAVEQAMEARSMGINLTPEEKFEVFGDFDPDQYEEEVRERWG
modifications: left off: His6, end not stated, state not stated
What does the source list for B11?
lower DNA-binding affinity than N-terminal truncation ([5]; TipAH7 vs TipAN, range printed jointly for the three H7 truncations): 4–7 fold; Kd [5, 7]: 318 ± 58.5 nM
